Experimental data taken from patent US20030175819A1 (BURNHAM INSTITUTE, published 2003).
*: point of attachment. RhodamineB = CCN(CC)c1ccc2c(-c3ccccc3C(=O)*)c3ccc(=[N+](CC)CC)cc-3oc2c1; Ahx = NCCCCCC(=O)O

What was measured:
[1] = target: T1, GFP-HN (Green Fluorescent Protein fused to wild-type, full-length Humanin, cytosolic / nuclear-encoded form) (human, UniProt P42212 1-238 = GFP); experiment: co-immunoprecipitation from HEK293T cells (anti-GFP IP, anti-myc blot)
T1 construct: Humanin cDNA in the XhoI/HindIII sites of GFP-C1 (pEGFP-C1), so GFP is N-terminal; also called GFP-HN(N); GFP-Humanin

[2] = target: Recombinant Bcl-XL protein (UniProt Q07817 1-211); experiment: fluorescence polarization assay
Method: (§1) In this example, the in vitro binding assay is a fluorescence polarization assay (FPA). For this experiment, full-length Bax protein was produced in bacteria and purified. […] The extent of peptide binding was then monitored by measuring polarization of monochromatic light passed through the sample, where peptide binding to the bulkier protein slows the rate of peptide tumbling in solution, enhancing the polarization effect.
(§2) Fluorescence Polarization Assays were performed as follows. […] Fluorescence polarization was measured using an AnalystTM AD Assay Detection System (LJL Biosystem, Sunnyvale, Calif.).

[3] = target: T2, purified recombinant full-length Bax protein (from E. coli BL21 harboring pTYB1-Bax) (human, UniProt Q07812 1-192); experiment: fluorescence polarization assay, various concentrations of purified recombinant Bax with 40 nM rhodamine-conjugated Humanin peptide
T2 construct: also called recombinant Bax
T2 sequence (Q07812 whole entry): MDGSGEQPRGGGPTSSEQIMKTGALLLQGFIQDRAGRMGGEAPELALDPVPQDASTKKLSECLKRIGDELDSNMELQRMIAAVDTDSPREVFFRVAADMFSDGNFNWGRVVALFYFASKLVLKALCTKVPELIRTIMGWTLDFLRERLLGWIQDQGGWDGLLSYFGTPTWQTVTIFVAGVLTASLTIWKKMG
Method: as §1, §2

Sequence of Recombinant Bcl-XL protein (Q07817 1-211): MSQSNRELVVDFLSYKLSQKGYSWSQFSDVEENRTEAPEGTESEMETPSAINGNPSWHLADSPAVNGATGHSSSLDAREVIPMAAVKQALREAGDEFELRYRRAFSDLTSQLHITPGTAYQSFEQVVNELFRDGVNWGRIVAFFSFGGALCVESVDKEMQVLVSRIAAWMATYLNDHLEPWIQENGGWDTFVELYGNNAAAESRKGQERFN

Binder	binding result [1]	binding result [2]	Kd [3] [nM]
myc-tagged Bok (from pcDNA3-myc) (other, UniProt Q9UMX3 1-212, looked up, not shown: small tags and cut ends) MEVLRRSSVFAAEIMDAFDRSPTDKELVAQAKALGREYVHARLLRAGLSWSAPERAAPVPGRLAEVCAVLLRLGDELEMIRPSVYRNVARQLHISLQSEPVVTDAFLAVAGHIFSAGITWGKVVSLYAVAAGLAVDCVRQAQPAMVHALVDCLGEFVRKTLATWLRRRGGWTDVLKCVVSTDPGLRSHWLVAALCSFGRFLKAAFFVLLPER	no binding	–	–
myc-tagged Bcl-B (from pcDNA3-myc) (other, UniProt Q9HD36 1-204, looked up, not shown: small tags and cut ends) MVDQLRERTTMADPLRERTELLLADYLGYCAREPGTPEPAPSTPEAAVLRSAAARLRQIHRSFFSAYLGYPGNRFELVALMADSVLSDSPGPTWGRVVTLVTFAGTLLERGPLVTARWKKWGFQPRLKEQEGDVARDCQRLVALLSSRLMGQHRAWLQAQGGWDGFCHFFRTPFPLAFWRKQLVQAFLSCLLTTAFIYLWTRLL	no binding	–	–
myc-tagged Bak (from pcDNA3-myc) (other, UniProt Q16611 1-211, looked up, not shown: small tags and cut ends) MASGQGPGPPRQECGEPALPSASEEQVAQDTEEVFRSYVFYRHQQEQEAEGVAAPADPEMVTLPLQPSSTMGQVGRQLAIIGDDINRRYDSEFQTMLQHLQPTAENAYEYFTKIATSLFESGINWGRVVALLGFGYRLALHVYQHGLTGFLGQVTRFVVDFMLHHCIARWIAQRGGWVAALNLGNGPILNVLVVLGVVLLGQFVVRRFFKS	no binding	–	–
{RhodamineB-Ahx}-MAPRGFSCLLLLTSEIDLPVKRRA-NH2 (also called rhodamine-HN; rhodamine-conjugated HN peptide) [rhodamine-conjugated synthetic purified Humanin peptide]	–	no binding	~2
